The results in this text go back to patent publication US20250154283A1 (published 2025).

The target of data set [1] is T1, His-StrepTagII-HRV3C-human VWF-CK-HA-tag (human).
T1 construct: it begins with the VWF signal peptide, whose limits were marked only by underlining that is lost in the text, so it was not cut off; The CK domain forms disulfide-linked homodimers (CK dimer); also called recombinant human CK domain; Human CK
T1 chain: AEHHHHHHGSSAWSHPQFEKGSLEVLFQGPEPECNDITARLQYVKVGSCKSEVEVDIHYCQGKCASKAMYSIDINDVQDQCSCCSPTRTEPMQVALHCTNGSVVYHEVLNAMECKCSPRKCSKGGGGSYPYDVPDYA
Briefly: solution-phase equilibrium binding, free antibody by ELISA; apparent Kd; pH 5.5; mean ± SD, n=2.
Description: (§1) Following incubation for 30 min at room temperature to establish equilibrium, unbound antibody was quantified by ELISA using the immobilized human CK domain for capture and HRP-conjugated goat anti-human IgG Fc antibody for detection.
(§2) Following a single wash of the plate with 200 μL of wash buffer (TBS containing 0.05% (v/v) Tween-20 and 5 mM CaCl₂), the plate was blocked by incubation with 200 μL blocking buffer (TBS containing 5 mM CaCl₂ and 1% (w/w) BSA) for 1 hour at room temperature. […] Incubation lasted 3 min and was followed by 5-min incubation with 100 μL HRP-conjugated goat anti-human IgG Fc antibody for detection (1 mg/mL stock diluted 1:20,000 in blocking buffer). Before and after addition of a detection antibody, the plate was washed 5 times with 200 μL wash buffer. A chromogenic horseradish peroxidase (HRP) substrate (100 μL) was then added and following color development for 3 min, 100 μL ELISA stop solution were added to quench the reaction. Absorbance was measured at 450 nm with subtraction of the absorbance at 620 nm.
(§3) The standard curve prepared with free antibody was fitted to a Sigmoidal four-parameter logistic (4PL) model.

Data set [2] addresses T2, His-StrepTagII-HRV3C-cyno VWF-CK-HA-tag (cynomolgus monkey).
T2 construct: it begins with the VWF signal peptide, whose limits were marked only by underlining that is lost in the text, so it was not cut off; The CK domain forms disulfide-linked homodimers; also called recombinant cyno CK domain; Cyno CK
T2 chain: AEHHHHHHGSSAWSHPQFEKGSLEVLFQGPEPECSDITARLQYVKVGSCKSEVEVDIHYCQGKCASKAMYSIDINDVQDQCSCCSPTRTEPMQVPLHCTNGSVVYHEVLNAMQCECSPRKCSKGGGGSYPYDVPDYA
The description is as above.
Description: as §1, §2, §3

The target of data set [3] is T3, human plasma-derived VWF (human, UniProt P04275 764-2813).
T3 construct: multimeric; also called pd-VWF; Human VWF
Briefly: solution-phase equilibrium binding, free antibody by ELISA; apparent Kd; pH 7.4; mean ± SD, n=2.
Description: as §1, §2, §3

Data set [4] concerns the target T1, His-StrepTagII-HRV3C-human VWF-CK-HA-tag. The data set is described as above.
Description: as §1, §2, §3
The target of data set [5] is T2, His-StrepTagII-HRV3C-cyno VWF-CK-HA-tag. The description is as above.
Description: as §1, §2, §3
The target in data set [6] is T4, VWF in human plasma (human, UniProt P04275 764-2813).
T4 construct: Endogenous VWF in donor plasma, not purified; multimeric; also called VWF in plasma; VWF in platelet rich plasma
Description: VWF:FVIIIB enzyme immunoassay; human plasma (5 donors) 17 h 37 °C with 200 nM antibody; FVIII bound to captured VWF relative to untreated plasma; ligand FVIII.

Data set [7] has as its target T4, VWF in human plasma. Briefly: VWF:FVIIIB enzyme immunoassay; human plasma (5 donors) 17 h 37 °C with 600 nM antibody; FVIII bound to captured VWF relative to untreated plasma; ligand FVIII.
In data set [8] the target is T4, VWF in human plasma. Briefly: collagen type III binding ELISA; human plasma (5 donors) 17 h 37 °C with 600 nM antibody; VWF bound to collagen relative to untreated plasma; ligand collagen type III. On the technique in general: In an ELISA, binding on a coated surface is turned into a signal by an enzyme label.
Description: Following incubation, collagen binding was determined relative to untreated plasma.
In data set [9] the target is T4, VWF in human plasma. Description: flow cytometry, FITC anti-VWF on platelets; human PRP (2 donors), 0.5 mg/ml ristocetin, 600 nM antibody; relative to the same plasma without antibody; receptor platelet gp1b.
Description: PRP was prepared by centrifuging the blood at 250 g for 15 min. […] Sample analysis was performed on a flow cytometer. Using forward (FSC) and sideward (SSC) scatter pattern, a gate was placed on the platelets.
For data set [10], the target named is T5, His-StrepTagII-HRV3C-cyno VWF-CK-HA-tag (cynomolgus monkey).
T5 construct: also called recombinant cyno CK domain; cyno CK
T5 chain: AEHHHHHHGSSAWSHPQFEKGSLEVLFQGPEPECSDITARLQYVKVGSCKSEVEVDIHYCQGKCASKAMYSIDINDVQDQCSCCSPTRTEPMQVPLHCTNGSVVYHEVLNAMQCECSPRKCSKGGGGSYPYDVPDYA
Briefly: solution-phase equilibrium binding, unbound antibody by ELISA.

For data set [11], the target named is T6, human plasma-derived von Willebrand Factor (VWF) (human, UniProt P04275 764-2813).
T6 construct: also called pd-VWF; human plasma-derived VWF
Briefly: VWF:FVIIIB enzyme immunoassay, FVIII binding capacity of plasma VWF after incubation with 200 or 600 nM antibody; FVIII as the partner tested.

Data set [12] addresses T7, biotinylated human VWF cysteine knot (CK) domain construct (human, biotin on the in vitro biotinylation tag (residue not stated); one N-glycan).
T7 construct: Disulfide-linked homodimer; also called biotinylated human VWF CK domain; human VWF CK domain construct
T7 chain: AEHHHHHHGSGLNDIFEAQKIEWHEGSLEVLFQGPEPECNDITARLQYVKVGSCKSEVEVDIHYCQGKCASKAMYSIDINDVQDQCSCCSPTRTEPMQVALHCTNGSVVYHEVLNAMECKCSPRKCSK
Briefly: SPR, scFv captured on anti-SV5, pH 7.4; apparent Kd. (In SPR one partner is held on a chip, and binding of the other changes the refractive index at the surface.)

The target in data set [13] is human plasma-derived von Willebrand Factor (VWF).

B1: Lib1_P1_A9 OA (antibody, human IgG4 S228P, kappa, F234A L235A)
heavy: QVQLVQSGAEVKKPGASVKVSCKVSGDTLSSYGIHWVRQAPGKGLEWMGGSIPSFGTAIYAQKFQGRVTMTEDTSTDTAYMELSSLKSEDTAVYYCTSEGPWLPFFSFDYWGQGTLVTVSSASTKGPSVFPLAPCSRSTSESTAALGCLVKDYFPEPVTVSWNSGALTSGVHTFPAVLQSSGLYSLSSVVTVPSSSLGTKTYTCNVDHKPSNTKVDKRVESKYGPPCPPCPAPEAAGGPSVFLFPPKPKDTLMISRTPEVTCVVVDVSQEDPEVQFNWYVDGVEVHNAKTKPREEQFNSTYRVVSVLTVLHQDWLNGKEYKCKVSNKGLPSSIEKTISKAKGQPREPQVYTLPPSQEEMTKNQVSLSCAVKGFYPSDIAVEWESNGQPENNYKTTPPVLDSDGSFFLVSRLTVDKSRWQEGNVFSCSVMHEALHNHYTQKSLSLSLG
chain: ESKYGPPCPPCPAPEAAGGPSVFLFPPKPKDTLMISRTPEVTCVVVDVSQEDPEVQFNWYVDGVEVHNAKTKPREEQFNSTYRVVSVLTVLHQDWLNGKEYKCKVSNKGLPSSIEKTISKAKGQPREPQVYTLPPSQEEMTKNQVSLWCLVKGFYPSDIAVEWESNGQPENNYKTTPPVLDSDGSFFLYSRLTVDKSRWQEGNVFSCSVMHEALHNHYTQKSLSLSLG
light: DIQMTQSPSSVSASVGDRVTITCRASQGISRNLAWYQQKPGKAPKLLIYKASSLASGVPSRFSGSGSGTDFTLTISSLQPEDFANYYCQQSFSTPVTFGGGTKVEIKRTVAAPSVFIFPPSDEQLKSGTASVVCLLNNFYPREAKVQWKVDNALQSGNSQESVTEQDSKDSTYSLSSTLTLSKADYEKHKVYACEVTHQGLSSPVTKSFNRGEC
notes: also called monovalent (one-arm) Lib1_P1_A9
Consider B1, for which the Kd in [1] was 17.9 nM; in [2], 26.4 nM; in data set [3], 5.7 nM; in data set [4], 5.3 nM; in data set [5] it was 10.2 nM. Besides, the “VWF:FVIII level (% of control)” value in data set [6] is 91.1 % of control; in data set [7], 93.9 % of control. Moreover, in data set [8], the “Collagen binding (% control)” value came to 106 % control. Moreover, in data set [9], the “Platelet binding (% control)” value was found to be 89.7 % control.

B2: Lib1_P1_A6 OA (antibody, human IgG4 S228P, kappa, F234A L235A)
heavy: QVQLVQSGAEVKKPGASVKVSCKVSGSTFSNYAIHWVRQAPGKGLEWMGGIVPLSGTAIYAQKFQGRVTMTEDTSTDTAYMELSSLKSEDTAVYYCARDQGESSGWYAIYYGMDVWGQGTTVTVSSASTKGPSVFPLAPCSRSTSESTAALGCLVKDYFPEPVTVSWNSGALTSGVHTFPAVLQSSGLYSLSSVVTVPSSSLGTKTYTCNVDHKPSNTKVDKRVESKYGPPCPPCPAPEAAGGPSVFLFPPKPKDTLMISRTPEVTCVVVDVSQEDPEVQFNWYVDGVEVHNAKTKPREEQFNSTYRVVSVLTVLHQDWLNGKEYKCKVSNKGLPSSIEKTISKAKGQPREPQVYTLPPSQEEMTKNQVSLSCAVKGFYPSDIAVEWESNGQPENNYKTTPPVLDSDGSFFLVSRLTVDKSRWQEGNVFSCSVMHEALHNHYTQKSLSLSLG
chain: ESKYGPPCPPCPAPEAAGGPSVFLFPPKPKDTLMISRTPEVTCVVVDVSQEDPEVQFNWYVDGVEVHNAKTKPREEQFNSTYRVVSVLTVLHQDWLNGKEYKCKVSNKGLPSSIEKTISKAKGQPREPQVYTLPPSQEEMTKNQVSLWCLVKGFYPSDIAVEWESNGQPENNYKTTPPVLDSDGSFFLYSRLTVDKSRWQEGNVFSCSVMHEALHNHYTQKSLSLSLG
light: DIQMTQSPSSVSASVGDRVTITCRASQGIGTWLAWYQQKPGKAPKLLIYGSSSRASGVPSRFSGSGSGTDFTLTISSLQPEDFANYYCQQSYGKPTFGGGTKVEIKRTVAAPSVFIFPPSDEQLKSGTASVVCLLNNFYPREAKVQWKVDNALQSGNSQESVTEQDSKDSTYSLSSTLTLSKADYEKHKVYACEVTHQGLSSPVTKSFNRGEC
notes: monovalent one-arm human IgG4; also called monovalent (one-arm) Lib1_P1_A6
For the molecule B2, the “fold change in Kd, cyno CK against human CK” value in data set [10] is less than 2 fold. The “VWF:FVIII level (% of untreated donor-matched plasma)” value in [11] is more than 80%.

B3: 17561_Lib6_scFv (scFv, not shown: small tags and cut ends)
scFv: EVQLVQSGAEVKKPGASVKVSCKASGYTFTDLPISWVRQAPGQGLEWMGWINPYTGDTNYAQKLQGRGTMTTDPSTSTAYMELRSLRSDDTAVYYCARDGVILGYYYYYGMDVWGQGTTVTVSSSGGSTITSYNVYYTKLSSSGTESALTQPASVSGSPGQSITISCTGTDLGSKSVSWYQQHPGKAPKLMIYDNFNRPSGVSNRFSGSKSGNTASLTISGLQAEDEADYYCSSRTVSGTYVFGGGTKLTVL
For the molecule B3, the Kd in data set [12] was 10 nM.

B4: Lib1_P1_A9_scFv (scFv, not shown: small tags and cut ends)
scFv: QVQLVQSGAEVKKPGASVKVSCKVSGDTLSSYGIHWVRQAPGKGLEWMGGSIPSFGTAIYAQKFQGRVTMTEDTSTDTAYMELSSLKSEDTAVYYCTSEGPWLPFFSFDYWGQGTLVTVSSSGGSTITSYNVYYTKLSSSGTDIQMTQSPSSVSASVGDRVTITCRASQGISRNLAWYQQKPGKAPKLLIYKASSLASGVPSRFSGSGSGTDFTLTISSLQPEDFANYYCQQSFSTPVTFGGGTKVEIK
notes: soluble scFv, VH-linker-VL, expressed in S. cerevisiae (applies to all 63 scFvs)
On to B4, for which the Kd in data set [12] came to 0.05 nM.

B5: ADAM Metallopeptidase With Thrombospondin Type 1 Motif 13 (ADAMTS13) (protein)
chain: AAGGILHLELLVAVGPDVFQAHQEDTERYVLTNLNIGAELLRDPSLGAQFRVHLVKMVILTEPEGAPNITANLTSSLLSVCGWSQTINPEDDTDPGHADLVLYITRFDLELPDGNRQVRGVTQLGGACSPTWSCLITEDTGFDLGVTIAHEIGHSFGLEHDGAPGSGCGPSGHVMASDGAAPRAGLAWSPCSRRQLLSLLSAGRARCVWDPPRPQPGSAGHPPDAQPGLYYSANEQCRVAFGPKAVACTFAREHLDMCQALSCHTDPLDQSSCSRLLVPLLDGTECGVEKWCSKGRCRSLVELTPIAAVHGRWSSWGPRSPCSRSCGGGVVTRRRQCNNPRPAFGGRACVGADLQAEMCNTQACEKTQLEFMSQQCARTDGQPLRSSPGGASFYHWGAAVPHSQGDALCRHMCRAIGESFIMKRGDSFLDGTRCMPSGPREDGTLSLCVSGSCRTFGCDGRMDSQQVWDRCQVCGGDNSTCSPRKGSFTAGRAREYVTFLTVTPNLTSVYIANHRPLFTHLAVRIGGRYVVAGKMSISPNTTYPSLLEDGRVEYRVALTEDRLPRLEEIRIWGPLQEDADIQVYRRYGEEYGNLTRPDITFTYFQPKPRQAWVWAAVRGPCSVSCGAGLRWVNYSCLDQARKELVETVQCQGSQQPPAWPEACVLEPCPPYWAVGDFGPCSASCGGGLRERPVRCVEAQGSLLKTLPPARCRAGAQQPAVALETCNPQPCPARWEVSEPSSCTSAGGAGLALENETCVPGADGLEAPVTEGPGSVDEKLPAPEPCVGMSCPPGWGHLDATSAGEKAPSPWGSIRTGAQAAHVWTPAAGSCSVSCGRGLMELRFLCMDSALRVPVQEELCGLASKPGSRREVCQAVPCPARWQYKLAACSVSCGRGVVRRILYCARAHGEDDGEEILLDTQCQGLPRPEPQEACSLEPCPPRWKVMSLGPCSASCGLGTARRSVACVQLDQGQDVEVDEAACAALVRPEASVPCLIADCTYRWHVGTWMECSVSCGDGIQRRRDTCLGPQAQAPVPADFCQHLPKPVTVRGCWAGPCVGQGTPSLVPHEEAAAPGRTTATPAGASLEWSQARGLLFSPAPQPRRLLPGPQENSVQSSACGRQHLEPTGTIDMRGPGQADCAVAIGRPLGEVVTLRVLESSLNCSAGDMLLLWGRLTWRKMCRKLLDMTFSSKTNTLVVRQRCGRPGGGVLLRYGSQLAPETFYRECDMQLFGPWGEIVSPSLSPATSNAGGCRLFINVAPHARIAIHALATNMGAGTEGANASYILIRDTHSLRTTAFHGQQVLYWESESSQAEMEFSEGFLKAQASLRGQYWTLQSWVPEMQDPQSWKGKEGT
Consider B5, for which, in data set [13], the “VWF multimer distribution (LMW/IMW/HMW) after ristocetin, in the presence of 600 nM Lib1_P1_A6 OA” value was “The same shift in VWF multimer pattern was observed when plasma was treated with ristocetin in the presence of 600 nM antibody including Lib1_P1_A9 and Lib1_P1_A6”; the “VWF multimer distribution (LMW/IMW/HMW) after ristocetin, in the presence of 600 nM Lib1_P1_A9 OA” value was “The same shift in VWF multimer pattern was observed when plasma was treated with ristocetin in the presence of 600 nM antibody including Lib1_P1_A9 and Lib1_P1_A6”.
